The values that follow come from patent US20190151328A1 (published 2019).

As usually defined, the Kd is the free concentration of one partner at which half of the binding sites on the other are occupied at equilibrium, for simple one-to-one binding. Low values mean higher affinity, high ones lower affinity.

The target in this test is T1, human epidermal growth factor receptor 3 (HER3) (human, UniProt P21860 20-1342).
T1 construct: whole, on cells; also called ErbB3; HER3 protein
Description: flow cytometry on HCC1569 cells, PE-coupled anti-human secondary antibody; one-site specific binding fit (GraphPad Prism). As to the method:
A human breast cancer cell line HCC1569 (CRL-2330) from ATCC was cultured in an RPMI1640 medium (purchased from Invitrogen Corp., containing 10% […] (manufactured by Invitrogen Corp.) and 2 mM L-glutamine (manufactured by Invitrogen Corp.)). The cells were dissociated from the culture plate using ACCUTASE® SOLUTION (Millipore Corp., SCR005) or EDTA (5 mM, phosphate buffered saline (PBS, 137 mM sodium chloride, 2.7 mM potassium chloride, 1.47 mM potassium dihydrogen phosphate, and 10.5 mM disodium hydrogen phosphate)), and the number of living cells was measured by trypan blue treatment. The same numbers of cells suspended in a fluorescence-activated cell sorting (FACS) buffer (PBS containing 3% FBS and 0.004% sodium azide) were inoculated to 96-well U-bottom plates, and the cells were precipitated by centrifugation and suspended in 100 uL of an ice-cooled antibody or antibody-drug conjugate dilution or FACS buffer.
The cells of each group were reacted with a primary antibody dilution for 45 minutes on ice and then washed with a FACS buffer. […]
FIG. 3 and Table 1 show the mean fluorescence intensity of HCC1569 treated with serial dilutions of U1-59 or each antibody-drug conjugate. The equilibrium binding affinity KD and the maximum binding strength Bmax were calculated using GraphPad Prism software.
In general terms: Flow cytometry measures light scatter and fluorescence of single cells or particles in a stream.

B1: Antibody-drug conjugate (3) (antibody, human IgG1, kappa, V domains shown)
VH: QVQLQQWGAGLLKPSETLSLTCAVYGGSFSGYYWSWIRQPPGKGLEWIGEINHSGSTNYNPSLKSRVTISVETSKNQFSLKLSSVTAADTAVYYCARDKWTWYFDLWGRGTLVTVSS
VL: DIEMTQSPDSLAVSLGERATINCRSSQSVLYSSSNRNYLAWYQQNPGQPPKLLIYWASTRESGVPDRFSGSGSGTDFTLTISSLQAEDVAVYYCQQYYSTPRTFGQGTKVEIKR
modifications: may carry one drug-linker molecule (L1 species of Common procedure F); position not given; drug-linker -(Succinimid-3-yl-N)-CH2CH2CH2CH2CH2-C(=O)-GGFG-NH-CH2CH2CH2-C(=O)-(NH-DX) (exatecan) on cysteines by thioether bond at the reduced disulfide bonds of the hinge part; positions not given; average 4.9 drug molecules per antibody (Common procedure E)
notes: also called ADC (3)
The molecule B1 showed a Bmax of 29000.

B2: Antibody-drug conjugate (13) (antibody, human IgG1, kappa, V domains shown)
VH: QVQLQQWGAGLLKPSETLSLTCAVYGGSFSGYYWSWIRQPPGKGLEWIGEINHSGSTNYNPSLKSRVTISVETSKNQFSLKLSSVTAADTAVYYCARDKWTWYFDLWGRGTLVTVSS
VL: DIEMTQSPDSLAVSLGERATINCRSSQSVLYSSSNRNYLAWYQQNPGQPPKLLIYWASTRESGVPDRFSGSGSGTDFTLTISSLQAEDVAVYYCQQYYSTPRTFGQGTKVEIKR
modifications: may carry one drug-linker molecule (L1 species of Common procedure F); position not given; drug-linker -(Succinimid-3-yl-N)-CH2CH2CH2CH2CH2-C(=O)-GGFG-NH-CH2-O-CH2-C(=O)-(NH-DX) (exatecan) on cysteines by thioether bond at the reduced disulfide bonds of the hinge part; positions not given; average 6.2 (Common procedure E) or 7.0 (Common procedure F) drug molecules per antibody
notes: also called ADC (13)
With B2, the Kd turned out to be 2.73 nM.
